Results as given in patent publication US20230192897A1 (NUMAB THERAPEUTICS, published 2023).

T1: mouse CD137-Fc chimeric protein (mouse, UniProt P20334 24-187, limits assumed)
T1 sequence (looked up): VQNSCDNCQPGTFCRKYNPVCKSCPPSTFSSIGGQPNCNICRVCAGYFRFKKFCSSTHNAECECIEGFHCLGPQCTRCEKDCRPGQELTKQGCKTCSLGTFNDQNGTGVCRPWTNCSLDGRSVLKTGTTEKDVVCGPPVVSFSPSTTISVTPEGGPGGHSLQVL

B1: PRO830 (scFv)
scFv: DIQMTQSPSSLSASVGDRVTITCQASQSINDYLAWYQQKPGKAPKLLIYKASTLASGVPSRFSGSGSGTDFTLTISSLQPEDFATYYCQQGYIITDIDNVFGTGTKVTVLGGGGGSGGGGSGGGGSGGGGSQVQLQESGPGLVKPSETLSLTCKVSGFSFSSGYDMCWIRQPPGKGLEWIGCVVAGSVDITYYASWAKGRVTISVDSSKNQFSLKLSSVTAADTAVYYCARKDAYSDAFNLWGQGTLVTVSS
notes: anti-PDL1 scFv; also called 33-03-G02 sc01 scFv; 33-03-G02 CDR
B2: PRO1480 (other)
chain: DIQMTQSPASLSASVGDRVTITCQASQSIGTYLAWYQQKPGKPPKLLIYRAFILASGVPSRFSGSGSGTDFTLTISSLQPEDFATYYCQSNFYSDSTTIGPNAFGTGTKVTVLGGGGGSEVQLVESGGGLVQPGGSLRLSCAASGFSFSANYYPCWVRQAPGKGLEWIGCIYGGSSDITYDANWTKGRFTISRDNSKNTVYLQMNSLRAEDTAVYYCARSAWYSGWGGDLWGQGTLVTVSSGGGGSGGGGSGGGGSGGGGSIQMTQSPSSLSASVGDRVTITCQASQSISNRLAWYQQKPGKAPKLLIYSASTLASGVPSRFSGSGSGTDFTLTISSLQPEDFATYYCQSTYYGNDGNAFGTGTKVTVLGGGGGSEVQLVESGGGLVQPGGSLRLSCAASGFSFNSDYWIYWVRQAPGKGLEWIASIYGGSSGNTQYASWAQGRFTISRDNSKNTVYLQMNSLRAEDTAVYFCARGYVDYGGATDLWGQGTLVTVSSGGGGSGGGGSIQMTQSPSSLSASVGDRVTITCQSSESVYSNNQLSWYQQKPGQPPKLLIYDASDLASGVPSRFSGSGSGTDFTLTISSLQPEDFATYYCAGGFSSSSDTAFGGGTKLTVLGGGGGSGGGGSGGGGSGGGGSEVQLVESGGGLVQPGGSLRLSCAASGFSLSSNAMGWVRQAPGKGLEYIGIISVGGFTYYASWAKGRFTISRDNSKNTVYLQMNSLRAEDTATYFCARDRHGGDSSGAFYLWGQGTLVTVSS
notes: trispecific scDb-scFv; also called 38-27-A11 sc02 scDb-i/37-20-B03 sc09.1 scDb-o/19-01-H04 sc03 scFv
B3: PRO1123 (bispecific antibody)
chain: DIQMTQSPSSLSASVGDRVTITCQASQSINDYLAWYQQKPGKAPKLLIYKASTLASGVPSRFSGSGSGTDFTLTISSLQPEDFATYYCQQGYIITDIDNVFGTGTKVTVLGGGGGSQVQLQESGPGLVKPSETLSLTCKVSGFSFSNSYWICWVRQPPGKGLEWIGCTFVGSSDSTYYANWAKGRVTISVDSSKNQVSLKLSSVTAADTAVYFCARHPSDAVYGYANNLWGQGTLVTVSSGGGGSGGGGSGGGGSGGGGSIQMTQSPSSLSASVGDRVTITCQASQSINNVLAWYQQKPGKPPKLLIYRASTLASGVPSRFSGSGSGTDFTLTISSLQPEDFATYYCQSSYGNYGDFGTGTKVTVLGGGGGSQVQLQESGPGLVKPSETLSLTCKVSGFSFSSGYDMCWIRQPPGKGLEWIGCVVAGSVDITYYASWAKGRVTISVDSSKNQFSLKLSSVTAADTAVYYCARKDAYSDAFNLWGQGTLVTVSS
notes: scDb; also called 38-02-A04 sc05 IF scDb-i/33-03-G02 sc01 scDb-o
B4: PRO1013 (scFv)
scFv: DIQMTQSPSSLSASVGDRVTITCQASQSIGTYLAWYQQKPGKAPKLLIYRAFILASGVPSRFSGSGSGTDFTLTISSLQPEDFATYYCQSNFYSDSTTIGPNAFGTGTKVTVLGGGGGSGGGGSGGGGSGGGGSQVQLVQSGAEVKKPGASVKVSCKASGFSFNSDYWIYWVRQAPGQGLEWMGSIYGGSSGNTQYASWAQGRVTMTRDTSISTAYMELSSLRSEDTAVYYCARGYVDYGGATDLWGQGTLVTVSS
notes: anti-PDL1 scFv; also called 37-20-B03 sc02 scFv; 37-20-B03 CDR, VH1

Columns and labels:
biotinylated human PDL1 [1] = biological target: T2, biotinylated human PDL1 (human, UniProt Q9NZQ7 19-238, limits assumed, biotinylated); experiment: competition ELISA B7.1/PDL1
T2 construct: also called biotinylated PDL1
In short: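 Test mixtures containing biotinylated human PDL1 were pre-incubated 1 h at room temperature, then incubated 1.5 h on the plate under agitation. Bound PDL1 detected with 10 ng/ml streptavidin-polyHRP40 and TMB, stopped at 6 min with HCl, read at 450 nm minus 690 nm. IC₅₀ from 4PL fit.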

human PDL1 on cells = human PDL1 on cells (human, UniProt Q9NZQ7 19-290); experiment: cell-based or functional assay
[2] = biological target: T3, cynomolgus PDL1-Fc chimeric protein (cynomolgus monkey, UniProt G7PSE7 19-239); experiment: SPR
T3 construct: PDL1-Fc chimeric protein from different species captured on the chip
In short: (§1)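 Kinetics were fitted with a one-to-one Langmuir model to give apparent ka, kd and KD. Binders at 0.12-90 nM (three-fold series) flowed 3 min, with 10 min dissociation and 3 M MgCl₂ regeneration, on a Biacore T200.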

Fc tagged human PDL1 = biological target: T4, Fc tagged human PDL1 (human, UniProt Q9NZQ7 19-239); experiment: SPR
T4 construct: Bought (Sino Biological, cat. 10084-H02H); captured on the SPR chip; also called PDL1-Fc chimeric protein
In short: as §1

biotinylated human PDL1 [3] = biological target: T2, biotinylated human PDL1; experiment: competition ELISA PD-1/PDL1
[4] = biological target: T5, CD137 on Jurkat NFkB reporter cells (human, UniProt Q07011 24-255); experiment: cell-based or functional assay
Fc tagged human CD137 = biological target: T6, Fc tagged human CD137 (human, UniProt Q07011 24-186); experiment: SPR
T6 construct: also called CD137-Fc chimeric protein
In short: as §1

[5] = biological target: cynomolgus CD137-Fc chimeric protein (cynomolgus monkey, UniProt A9YYE7 24-186); experiment: SPR
In short: as §1

[6] = biological target: T5, CD137 on Jurkat NFkB reporter cells; experiment: cell-based or functional assay; remark: listed apart in the source
human serum albumin = biological target: T7, human serum albumin (human, UniProt P02768 25-609); experiment: SPR, SA coupled to chip, pH 5.5
T7 construct: Coupled directly to the CM5 chip; also called HSA; human SA
Method: Affinity of molecules to serum albumin (SA) of the different species was determined by SPR measurements using a Biacore T200 device (GE Healthcare). SA was directly coupled to a CM5 sensor chip (GE Healthcare) using amine coupling chemistry. […] The assay was run in a 1× PBS-Tween buffer at pH 5.5.

[7] = biological target: T5, CD137 on Jurkat NFkB reporter cells; experiment: cell-based or functional assay; remark: listed apart in the source
[8] = biological target: T5, CD137 on Jurkat NFkB reporter cells; experiment: cell-based or functional assay; remark: listed apart in the source
[9] = biological target: T5, CD137 on Jurkat NFkB reporter cells; experiment: cell-based or functional assay; remark: listed apart in the source
[10] = biological target: T5, CD137 on Jurkat NFkB reporter cells; experiment: cell-based or functional assay; remark: listed apart in the source
[11] = biological target: T1, mouse CD137-Fc chimeric protein; experiment: SPR
In short: as §1

Binder	IC50 (biotinylated human PDL1 [1]) [µg/mL]	rel. IC50 (IC50 avelumab/IC50 test) (biotinylated human PDL1 [1]) [fold]	IC50 (ng/ml), NF-AT potency assay (human PDL1 on cells) [ng/mL]	rel. IC50 (avelumab/test) (human PDL1 on cells) [fold]	koff [2] [s⁻¹]	kon [2] [M⁻¹ s⁻¹]	koff (Fc tagged human PDL1) [s⁻¹]	kon (Fc tagged human PDL1) [M⁻¹ s⁻¹]	IC50 (biotinylated human PDL1 [3]) [µg/mL]	rel. IC50 (IC50 avelumab/IC50 test) (biotinylated human PDL1 [3]) [fold]	Kd (Fc tagged human CD137) [nM]	koff (Fc tagged human CD137) [s⁻¹]	kon (Fc tagged human CD137) [M⁻¹ s⁻¹]	Kd [5] [nM]	koff [5] [s⁻¹]	kon [5] [M⁻¹ s⁻¹]	further results
B1	0.0129	1.16	42.9	0.73	0.0002	2.2e+06	0.00016	2.1e+06	0.0034	0.61							
B2	0.0112	1.32			3.4e-05	4e+06		3.5e+06	0.00227	1	0.37	0.00022	580000	0.47	0.0003	640000	IC50 (ng/ml), NF-AT potency assay, +HSA (human PDL1 on cells): 84.8 ng/mL; rel. IC50 (avelumab/test), +HSA (human PDL1 on cells): 0.61 fold; IC50 (ng/ml) (EC50 in Table 16C), NFkB reporter, HCC827 + IFNg, 24 h, +HSA [4]: 4.67 ng/mL; rel. IC50 (PRO1186/test), 24 h [4]: 1 fold; Kd [2]: 0.0085 nM; Area under the curve (calculated using PRO885 normalized data), first line (6 h by the order of the upper part) [6]: 232; Area under the curve (calculated using PRO885 normalized data), second line (24 h by the order of the upper part) [6]: 261; EC50 [ng/ml], NF-kB reporter, HCC827 + IFNg, +HSA, 6 h [6]: 6.44 ng/mL; IC10/EC90 ratio, first line (6 h by the order of the upper part) [6]: 43; IC10/EC90 ratio, second line (24 h by the order of the upper part) [6]: 360; Maximum NF-kB activation (rel. to PRO1186) [%], first line (6 h by the order of the upper part) [6]: 114%; Maximum NF-kB activation (rel. to PRO1186) [%], second line (24 h by the order of the upper part) [6]: 121%; rel. Area under the curve (AUCsample/AUCPRO1186), first line (6 h by the order of the upper part) [6]: 1.2 fold; rel. Area under the curve (AUCsample/AUCPRO1186), second line (24 h by the order of the upper part) [6]: 1.29 fold; rel. EC50 (EC50, PRO1186/EC50, sample), NF-kB reporter, 6 h [6]: 1.93 fold; rel. EC50 (EC50, PRO1186/EC50, sample), NF-kB reporter, 24 h [6]: 1 fold; rel. IC10/EC90 (ratio of sample/ratio of PRO1186), first line (6 h by the order of the upper part) [6]: 0.54 fold; rel. IC10/EC90 (ratio of sample/ratio of PRO1186), second line (24 h by the order of the upper part) [6]: 1.86 fold; kon (human serum albumin): 327000 M⁻¹ s⁻¹
B3							0.00017	2.3e+06			0.58	0.00027	310000	1.3	0.00033	260000	EC50, NFkB reporter, CHO-PDL1 [7]: 0.00575 µg/mL; Top of curve fit, NFkB reporter, CHO-PDL1 [7]: 219; EC50, NFkB reporter, HCC827 with IFNg [8]: 0.0119 µg/mL; Top of curve fit, NFkB reporter, HCC827 with IFNg [8]: 154; EC50, NFkB reporter, HCC827 without IFNg [9]: 0.0161 µg/mL; Top of curve fit, NFkB reporter, HCC827 without IFNg [9]: 123; IC50 (ng/ml), NFkB reporter, CHO-PD-L1 [10]: 5.75 ng/mL; IC50 (ng/ml), NFkB reporter, HCC827 + IFNg [10]: 11.4 ng/mL; IC50 (ng/ml), NFkB reporter, HCC827 - IFNg [10]: 16.1 ng/mL; max. activation (%), NFkB reporter, CHO-PD-L1 [10]: 219%; max. activation (%), NFkB reporter, HCC827 + IFNg [10]: 154%; max. activation (%), NFkB reporter, HCC827 - IFNg [10]: 123%; rel. IC50 (urelumab/test), NFkB reporter, CHO-PD-L1 [10]: 18.1 fold; rel. IC50 (urelumab/test), NFkB reporter, HCC827 + IFNg [10]: 12.2 fold; rel. IC50 (urelumab/test), NFkB reporter, HCC827 - IFNg [10]: 6.82 fold; Kd [11]: 410 nM; koff [11]: 0.027 s⁻¹; kon [11]: 65000 M⁻¹ s⁻¹
B4	0.00405	3.68	21.3	1.6	0.00032	5.9e+06	0.00027	6e+06	0.00057	3.67							Kd (Fc tagged human PDL1): 0.045 nM
